For 53 variants, abundance fitness results are on record in the Human Domainome abundance scans (Beltran et al. 2025).

± gives the uncertainty stated by the source.

First the molecules themselves.
B1: Histone-lysine N-methyltransferase SETD2, residues 2382 to 2430; numbered along this chain, Q9BYW2 (parent)
chain: SPPKPKTIVLPPNWKTARDPEGKIYYYHVITRQTQWDPPTWESPGDDAS

In the series the parent is B1. Kind of series: abundance fitness (aPCA) (normalised: wild type 0, dead -1); higher = more abundant; growth selection in yeast, the domain comes from the species named. Conditions: Homo sapiens.
With SPPKPKTIVLPPNWKTARDPEGKIYYYHVITRGTQWDPPTWESPGDDAS, the abundance fitness was -0.798 ± 0.064.

Consider SPPKPKTIVLPPNWKTARDPEGKIYYYHVITRETQWDPPTWESPGDDAS, for which the abundance fitness was 0.099 ± 0.059.

Turning to SPPKPKTIVLPPNWKTARDPEGKIYYYHVITRKTQWDPPTWESPGDDAS, the abundance fitness was -0.401 ± 0.12.

Regarding SPPKPKTIVLPPNWKTARDPEGKIYYYHVITRMTQWDPPTWESPGDDAS, the abundance fitness was -0.614 ± 0.12.

Consider SPPKPKTIVLPPNWKTARDPEGKIYYYHVITRPTQWDPPTWESPGDDAS, for which the abundance fitness is -0.904 ± 0.075.

Regarding SPPKPKTIVLPPNWKTARDPEGKIYYYHVITRVTQWDPPTWESPGDDAS, the abundance fitness was -0.251 ± 0.038.

For SPPKPKTIVLPPNWKTARDPEGKIYYYHVITRDTQWDPPTWESPGDDAS, the abundance fitness was -0.185 ± 0.087.

Regarding SPPKPKTIVLPPNWKTARDPEGKIYYYHVITRATQWDPPTWESPGDDAS, the abundance fitness was -0.149 ± 0.051.

SPPKPKTIVLPPNWKTARDPEGKIYYYHVITRITQWDPPTWESPGDDAS: the abundance fitness is -0.551 ± 0.17.

Consider SPPKPKTIVLPPNWKTARDPEGKIYYYHVITRHTQWDPPTWESPGDDAS, for which the abundance fitness was -0.578 ± 0.14.

As for SPPKPKTIVLPPNWKTARDPEGKIYYYHVITRTTQWDPPTWESPGDDAS, the abundance fitness was -0.13 ± 0.087.

For the variant SPPKPKTIVLPPNWKTARDPEGKIYYYHVITRNTQWDPPTWESPGDDAS, the abundance fitness was -0.117 ± 0.14.

On to SPPKPKTIVLPPNWKTARDPEGKIYYYHVITRLTQWDPPTWESPGDDAS, for which the abundance fitness is -0.411 ± 0.038.

For SPPKPKTIVLPPNWKTARDPEGKIYYYHVITRRTQWDPPTWESPGDDAS, the abundance fitness was -0.318 ± 0.056.

In the case of SPPKPKTIVLPPNWKTARDPEGKIYYYHVITRFTQWDPPTWESPGDDAS, the abundance fitness is -0.906 ± 0.28.

As to SPPKPKTIVLPPNWKTARDPEGKIYYYHVITRWTQWDPPTWESPGDDAS, the abundance fitness is -0.751 ± 0.054.

As to SPPKPKTIVLPPNWKTARDPEGKIYYYHVITRCTQWDPPTWESPGDDAS, the abundance fitness was -0.251 ± 0.048.

Take SPPKPKTIVLPPNWKTARDPEGKIYYYHVITVQTQWDPPTWESPGDDAS: the abundance fitness was -1.01 ± 0.14.

As to SPPKPKTIVLPPNWKTARDPEGKIYYYHVITKQTQWDPPTWESPGDDAS, the abundance fitness is 0.13 ± 0.076.

As for SPPKPKTIVLPPNWKTARDPEGKIYYYHVITPQTQWDPPTWESPGDDAS, the abundance fitness is -0.617 ± 0.057.

As to SPPKPKTIVLPPNWKTARDPEGKIYYYHVITMQTQWDPPTWESPGDDAS, the abundance fitness is -0.15 ± 0.069.

Consider SPPKPKTIVLPPNWKTARDPEGKIYYYHVITQQTQWDPPTWESPGDDAS, for which the abundance fitness is -0.022 ± 0.039.

As for SPPKPKTIVLPPNWKTARDPEGKIYYYHVITIQTQWDPPTWESPGDDAS, the abundance fitness is -0.997 ± 0.39.

With SPPKPKTIVLPPNWKTARDPEGKIYYYHVITGQTQWDPPTWESPGDDAS, the abundance fitness was -0.173 ± 0.042.

For the variant SPPKPKTIVLPPNWKTARDPEGKIYYYHVITCQTQWDPPTWESPGDDAS, the abundance fitness is -0.357 ± 0.049.

Turning to SPPKPKTIVLPPNWKTARDPEGKIYYYHVITSQTQWDPPTWESPGDDAS, the abundance fitness was -0.363 ± 0.058.

Turning to SPPKPKTIVLPPNWKTARDPEGKIYYYHVITEQTQWDPPTWESPGDDAS, the abundance fitness is -0.197 ± 0.085.

Regarding SPPKPKTIVLPPNWKTARDPEGKIYYYHVITWQTQWDPPTWESPGDDAS, the abundance fitness is -0.848 ± 0.05.

Consider SPPKPKTIVLPPNWKTARDPEGKIYYYHVITHQTQWDPPTWESPGDDAS, for which the abundance fitness is -0.131 ± 0.1.

Turning to SPPKPKTIVLPPNWKTARDPEGKIYYYHVITAQTQWDPPTWESPGDDAS, the abundance fitness is -0.304 ± 0.063.

As to SPPKPKTIVLPPNWKTARDPEGKIYYYHVITFQTQWDPPTWESPGDDAS, the abundance fitness is -0.691 ± 0.21.

Consider SPPKPKTIVLPPNWKTARDPEGKIYYYHVITDQTQWDPPTWESPGDDAS, for which the abundance fitness is -0.027 ± 0.097.

As to SPPKPKTIVLPPNWKTARDPEGKIYYYHVITYQTQWDPPTWESPGDDAS, the abundance fitness was -0.215 ± 0.091.

For SPPKPKTIVLPPNWKTARDPEGKIYYYHVITNQTQWDPPTWESPGDDAS, the abundance fitness was found to be 0.031 ± 0.1.

On to SPPKPKTIVLPPNWKTARDPEGKIYYYHVITLQTQWDPPTWESPGDDAS, for which the abundance fitness was -0.315 ± 0.039.

Consider SPPKPKTIVLPPNWKTARDPEGKIYYYHVITTQTQWDPPTWESPGDDAS, for which the abundance fitness is -1.01 ± 0.27.

In the case of SPPKPKTIVLPPNWKTARDPEGKIYYYHVINRQTQWDPPTWESPGDDAS, the abundance fitness was -0.798 ± 0.23.

Turning to SPPKPKTIVLPPNWKTARDPEGKIYYYHVIRRQTQWDPPTWESPGDDAS, the abundance fitness is -0.502 ± 0.037.

Consider SPPKPKTIVLPPNWKTARDPEGKIYYYHVIDRQTQWDPPTWESPGDDAS, for which the abundance fitness was -0.724 ± 0.25.

As for SPPKPKTIVLPPNWKTARDPEGKIYYYHVISRQTQWDPPTWESPGDDAS, the abundance fitness is -0.131 ± 0.064.

SPPKPKTIVLPPNWKTARDPEGKIYYYHVIIRQTQWDPPTWESPGDDAS: the abundance fitness was -0.945 ± 0.13.

Regarding SPPKPKTIVLPPNWKTARDPEGKIYYYHVIMRQTQWDPPTWESPGDDAS, the abundance fitness was -0.862 ± 0.11.

As to SPPKPKTIVLPPNWKTARDPEGKIYYYHVIHRQTQWDPPTWESPGDDAS, the abundance fitness was -0.761 ± 0.17.

Consider SPPKPKTIVLPPNWKTARDPEGKIYYYHVIWRQTQWDPPTWESPGDDAS, for which the abundance fitness is -1.06 ± 0.077.

For the variant SPPKPKTIVLPPNWKTARDPEGKIYYYHVIGRQTQWDPPTWESPGDDAS, the abundance fitness is -0.927 ± 0.088.

As for SPPKPKTIVLPPNWKTARDPEGKIYYYHVIYRQTQWDPPTWESPGDDAS, the abundance fitness is -0.831 ± 0.27.

SPPKPKTIVLPPNWKTARDPEGKIYYYHVIKRQTQWDPPTWESPGDDAS: the abundance fitness was -0.651 ± 0.067.

SPPKPKTIVLPPNWKTARDPEGKIYYYHVIQRQTQWDPPTWESPGDDAS: the abundance fitness is -0.627 ± 0.084.

With SPPKPKTIVLPPNWKTARDPEGKIYYYHVIERQTQWDPPTWESPGDDAS, the abundance fitness is -0.735 ± 0.048.

Turning to SPPKPKTIVLPPNWKTARDPEGKIYYYHVIPRQTQWDPPTWESPGDDAS, the abundance fitness is -0.785 ± 0.047.

As to SPPKPKTIVLPPNWKTARDPEGKIYYYHVILRQTQWDPPTWESPGDDAS, the abundance fitness is -0.748 ± 0.099.

SPPKPKTIVLPPNWKTARDPEGKIYYYHVITRQCQWDPPTWESPGDDAS: the abundance fitness is -0.109 ± 0.1.

SPPKPKTIVLPPNWKTARDPEGKIYYYHVITRQAQWDPPTWESPGDDAS: the abundance fitness is -0.296 ± 0.067.
